Experimental data reported in patent US12551525B2, “Collagen peptide-based medicament compositions and devices and methods of production and use thereof” (SUSTAIN HOLDINGS, LLC, priority 2017, dated 2026).

System: corneal epithelium in wounded mouse eyes
Assay: In vivo healing of mouse corneal epithelium (corneal wound model, fluorescein staining)
Set-up: species or system mouse (C57BL/6)
Conditions: positive control, 100 ng/ml; 16 hours post-wounding; compared to Cmpd 3 and Cmpd 10
Method: The FIG. 1s a series of photomicrographs depicting the healing of a wound in the cornea of mouse eye, at time 0 and 16 hours post-wounding, upon treatment with certain compositions of the present invention. Wounds were introduced into the corneas of mice, and the mice treated immediately after wounding with vehicle (PBS), with 100 ng/ml of epidermal growth factor (EGF), or with 25 nM (about 3 mg/kg) of a (Pro-Pro-Gly)7 CMP of the invention (SEQ ID NO:1) (“Cmpd 3”), or of a (Hyp-Pro-Gly)7-SubP CMP-TC of the invention (SEQ ID NO:390) (“Cmpd 10”).
To examine the possible therapeutic effects of CMPs and CMP-TC conjugates of the invention, studies were designed to test certain CMPs and CMP-TC conjugates in an in vivo setting—the healing of the corneal epithelium in wounded mouse eyes. […] Wound size at various time points over 48 hours was examined by fluorescein staining (see Carlson et al., id.), and documented via fluorescent photomicrography, and quantified using Image J software (see Rush, J. S. et al., Investig. Ophthalmol. Visual Sci. 57 (14): 5864-5871 (2016); Rush, J. S. et al., Investig. Ophthalmol. Visual Sci. 55 (8): 4691-4699 (2014)). […]

B1: epidermal growth factor (protein, UniProt P01133 23-1207, looked up)
Pro-epidermal growth factor: PQHWSCPEGTLAGNGNSTCVGPAPFLIFSHGNSIFRIDTEGTNYEQLVVDAGVSVIMDFHYNEKRIYWVDLERQLLQRVFLNGSRQERVCNIEKNVSGMAINWINEEVIWSNQQEGIITVTDMKGNNSHILLSALKYPANVAVDPVERFIFWSSEVAGSLYRADLDGVGVKALLETSEKITAVSLDVLDKRLFWIQYNREGSNSLICSCDYDGGSVHISKHPTQHNLFAMSLFGDRIFYSTWKMKTIWIANKHTGKDMVRINLHSSFVPLGELKVVHPLAQPKAEDDTWEPEQKLCKLRKGNCSSTVCGQDLQSHLCMCAEGYALSRDRKYCEDVNECAFWNHGCTLGCKNTPGSYYCTCPVGFVLLPDGKRCHQLVSCPRNVSECSHDCVLTSEGPLCFCPEGSVLERDGKTCSGCSSPDNGGCSQLCVPLSPVSWECDCFPGYDLQLDEKSCAASGPQPFLLFANSQDIRHMHFDGTDYGTLLSQQMGMVYALDHDPVENKIYFAHTALKWIERANMDGSQRERLIEEGVDVPEGLAVDWIGRRFYWTDRGKSLIGRSDLNGKRSKIITKENISQPRGIAVHPMAKRLFWTDTGINPRIESSSLQGLGRLVIASSDLIWPSGITIDFLTDKLYWCDAKQSVIEMANLDGSKRRRLTQNDVGHPFAVAVFEDYVWFSDWAMPSVMRVNKRTGKDRVRLQGSMLKPSSLVVVHPLAKPGADPCLYQNGGCEHICKKRLGTAWCSCREGFMKASDGKTCLALDGHQLLAGGEVDLKNQVTPLDILSKTRVSEDNITESQHMLVAEIMVSDQDDCAPVGCSMYARCISEGEDATCQCLKGFAGDGKLCSDIDECEMGVPVCPPASSKCINTEGGYVCRCSEGYQGDGIHCLDIDECQLGEHSCGENASCTNTEGGYTCMCAGRLSEPGLICPDSTPPPHLREDDHHYSVRNSDSECPLSHDGYCLHDGVCMYIEALDKYACNCVVGYIGERCQYRDLKWWELRHAGHGQQQKVIVVAVCVVVLVMLLLLSLWGAHYYRTQKLLSKNPKNPYEESSRDVRSRRPADTEDGMSSCPQPWFVVIKEHQDLKNGGQPVAGEDGQAADGSMQPTSWRQEPQLCGMGTEQGCWIPVSSDKGSCPQVMERSFHMPSYGTQTLEGGVEKPHSLLSANPLWQQRALDPPHQMELTQ
modifications: Pro-epidermal growth factor
notes: positive control growth factor
wound healing in mouse cornea and corneal stroma (reduction in diameter and intensity of fluorescein fluorescence): a lower level of healing
